Results as given in paper PMC6401066, “A dynamically interacting flexible loop assists oligomerisation of the Caenorhabditis elegans centriolar protein SAS-6” (Scientific Reports, 2019).

What was measured:
[1] = molecular target: SAS-6 coiled coil (CC interface) (Caenorhabditis elegans) (UniProt O62479); settings: cited from earlier work
[2] = molecular target: the molecule itself; assay: SEC; analytical SEC, Superdex 75 10/300 GL, PBS (20 mM sodium phosphate pH 7.0, 150 mM NaCl, 2 mM DTT); different protein concentrations, up to 10 mg/ml; self-association
FP = molecular target: the molecule itself; assay: FP
[3] = molecular target: the molecule itself; assay: fluorescence polarisation; 1,5-IAEDANS on C100 of CeSAS-6N; polarisation against protein concentration in PBS; fit of an ideal self-association model; monomer to NN dimer; three independent experiments

## SAS-6 coiled coil (CC interface) (from UniProt O62479)
[1]
  Kd: 1000 nM

B1: C. elegans SAS-6 N-terminal domain plus a short stretch of the coiled coil, wild type (CeSAS-6N-CC WT, amino acids 1-215) (domain or fragment, UniProt O62479 1-215, looked up)
chain: MTSKIALFDQTLIASLLQPLSLNQPDFKAYKTKVKLKISEQRNETSGEKELKFEISRSDDFEFLFSETLNNEKYQILARDHDLTVDFDAFPKVIIQHLLCKNIVKNLEEDGEVDARKKAGYHSIADPGKPTEINIILDAEKNFCSFELFSKTPISKGKIFSIKLHAVRGDHLISHLLKICSSQAVKLSTFYKSADELASLRQKCGDLEKQVEKLS
notes: SAS-6, C. elegans, N-terminal domain plus a short stretch of the coiled coil, amino acids 1-215; Forms a dimer through the coiled coil (calculated mass of the dimer 48.8 kDa) that assembles further through the NN interface; also called WT CeSAS-6_(N-CC); source: E. coli BL21 (DE3), purified (His-Trap HP, thrombin cleavage, Sephadex G75 SEC); not shown: His6, N-terminal, cleaved
[2]
  binding result: binds

B2: CeSAS-6N-CC Δ103–130 (domain or fragment, C. elegans, UniProt O62479 1-215, looked up)
chain: MTSKIALFDQTLIASLLQPLSLNQPDFKAYKTKVKLKISEQRNETSGEKELKFEISRSDDFEFLFSETLNNEKYQILARDHDLTVDFDAFPKVIIQHLLCKNTEINIILDAEKNFCSFELFSKTPISKGKIFSIKLHAVRGDHLISHLLKICSSQAVKLSTFYKSADELASLRQKCGDLEKQVEKLS
notes: source: E. coli BL21 (DE3), purified (His-Trap HP, thrombin cleavage, Sephadex G75 SEC); not shown: His6, N-terminal, cleaved
[2]
  stoichiometry N: 2

B3: CeSAS-6N S123E variant (domain or fragment, C. elegans, UniProt O62479 1-168, looked up)
chain: MTSKIALFDQTLIASLLQPLSLNQPDFKAYKTKVKLKISEQRNETSGEKELKFEISRSDDFEFLFSETLNNEKYQILARDHDLTVDFDAFPKVIIQHLLCKNIVKNLEEDGEVDARKKAGYHEIADPGKPTEINIILDAEKNFCSFELFSKTPISKGKIFSIKLHAVR
modifications: 1,5-IAEDANS conjugated to C100 (fluorescence polarisation samples)
notes: SAS-6, C. elegans, N-terminal domain, amino acids 1-168, with S123E; source: E. coli BL21 (DE3), purified (His-Trap HP, thrombin cleavage, Sephadex G75 SEC); not shown: His6, N-terminal, cleaved
FP
  Kd: 48 µM
[3]
  fold increase of NN affinity against CeSAS-6N WT: ~2 fold

B4: C. elegans SAS-6 N-terminal domain, wild type (CeSAS-6N WT, amino acids 1-168) (domain or fragment, UniProt O62479 1-168, looked up)
chain: MTSKIALFDQTLIASLLQPLSLNQPDFKAYKTKVKLKISEQRNETSGEKELKFEISRSDDFEFLFSETLNNEKYQILARDHDLTVDFDAFPKVIIQHLLCKNIVKNLEEDGEVDARKKAGYHSIADPGKPTEINIILDAEKNFCSFELFSKTPISKGKIFSIKLHAVR
modifications: 1,5-IAEDANS conjugated to C100 (fluorescence polarisation samples)
notes: spindle assembly abnormal protein 6 (SAS-6), C. elegans, N-terminal domain, amino acids 1-168; Samples for NMR were isotopically labelled (15N) and carried no fluorophore; also called WT CeSAS-6N; source: E. coli BL21 (DE3), purified (His-Trap HP, thrombin cleavage, Sephadex G75 SEC); not shown: His6, N-terminal, cleaved
[3]
  Kd: ~100 µM
